# From patent US20100260765A1 (AstraZeneca / MedImmune, published 2010)
# Columns and labels:
# [1] = target: T1, human KDR (VEGFR2) on cells (human, UniProt P35968 20-1356); assay: cell-based or functional assay
# [2] = target: T1, human KDR (VEGFR2) on cells; assay: FACS on HUVEC, hybridoma supernatant 1:50
# Protocol: HUVECs were seeded at 15,000 cells/well and incubated with 100 μL of sample supernatant (at 1:50 dilution) for one hour at 4° C. The positive control was goat anti-KDR antibody (R&D Systems, Inc.), and negative controls included irrelevant hybridoma supernatants at the same dilution. The cells were then washed and incubated with Cy5-conjugated goat anti-human antibody at 5 μg/mL and 7-Amino-Actinomycin D (7AAD) at 5 μg/mL for 15 minutes at 4° C. Bound KDR was detected using FACS analysis.
# [3] = target: T2, soluble KDR (VEGF Receptor 2 D1-7, Cat. #676490, Calbiochem) (human, UniProt P35968 20-764); assay: ELISA, plate-coated soluble KDR 250 ng/mL, hybridoma supernatant 1:5
# T2 construct: extracellular domain; Bought reagent; also called soluble human KDR; immobilized soluble KDR
# T2 sequence (P35968 20-764): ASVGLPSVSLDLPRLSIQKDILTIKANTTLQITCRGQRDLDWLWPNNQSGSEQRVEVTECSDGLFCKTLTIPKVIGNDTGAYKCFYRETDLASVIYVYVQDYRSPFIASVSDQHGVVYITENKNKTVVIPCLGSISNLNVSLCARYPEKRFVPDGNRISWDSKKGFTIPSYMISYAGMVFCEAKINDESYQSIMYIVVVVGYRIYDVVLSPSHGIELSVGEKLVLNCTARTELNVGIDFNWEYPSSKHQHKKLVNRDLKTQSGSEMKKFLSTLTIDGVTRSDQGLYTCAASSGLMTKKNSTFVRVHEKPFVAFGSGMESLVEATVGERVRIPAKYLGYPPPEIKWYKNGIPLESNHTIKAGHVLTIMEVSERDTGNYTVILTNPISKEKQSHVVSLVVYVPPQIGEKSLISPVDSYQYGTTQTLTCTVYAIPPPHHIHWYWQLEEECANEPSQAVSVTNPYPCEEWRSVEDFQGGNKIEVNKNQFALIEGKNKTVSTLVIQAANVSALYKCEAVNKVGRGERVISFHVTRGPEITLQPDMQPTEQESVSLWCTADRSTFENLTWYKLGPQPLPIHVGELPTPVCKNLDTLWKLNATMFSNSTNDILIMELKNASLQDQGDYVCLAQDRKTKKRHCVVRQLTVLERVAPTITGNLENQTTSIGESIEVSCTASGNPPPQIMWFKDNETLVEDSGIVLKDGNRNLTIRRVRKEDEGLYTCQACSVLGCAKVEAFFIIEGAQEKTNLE
# Protocol: To screen by binding to immobilized soluble KDR, plates were coated with KDR (Calbiochem) at 250 ng/mL overnight at 4° C. After blocking and washing the coated plates, the candidate hybridoma supernatants (at 1:5 dilution) were transferred to the plates and incubated for one hour at room temperature. The plates were then washed and incubated with secondary antibody (at 1:4000 dilution) for one hour at room temperature.
# [4] = target: T1, human KDR (VEGFR2) on cells; assay: cell-based or functional assay; remark: listed apart in the source
# [5] = target: T1, human KDR (VEGFR2) on cells; assay: cell-based or functional assay; remark: listed apart in the source
# [6] = target: T3, mouse KDR (Flk-1)/Fc (Cat. #443-KD/CF, R&D Systems) (mouse, UniProt P35918 20-762); assay: ELISA, plate-coated Flk-1/Fc 500 ng/mL, hybridoma supernatant 1:5
# T3 construct: Bought reagent; also called mouse VEGFR2; KDR mouse ortholog; Fc part of the bought chimera not given
# T3 sequence (P35918 20-762): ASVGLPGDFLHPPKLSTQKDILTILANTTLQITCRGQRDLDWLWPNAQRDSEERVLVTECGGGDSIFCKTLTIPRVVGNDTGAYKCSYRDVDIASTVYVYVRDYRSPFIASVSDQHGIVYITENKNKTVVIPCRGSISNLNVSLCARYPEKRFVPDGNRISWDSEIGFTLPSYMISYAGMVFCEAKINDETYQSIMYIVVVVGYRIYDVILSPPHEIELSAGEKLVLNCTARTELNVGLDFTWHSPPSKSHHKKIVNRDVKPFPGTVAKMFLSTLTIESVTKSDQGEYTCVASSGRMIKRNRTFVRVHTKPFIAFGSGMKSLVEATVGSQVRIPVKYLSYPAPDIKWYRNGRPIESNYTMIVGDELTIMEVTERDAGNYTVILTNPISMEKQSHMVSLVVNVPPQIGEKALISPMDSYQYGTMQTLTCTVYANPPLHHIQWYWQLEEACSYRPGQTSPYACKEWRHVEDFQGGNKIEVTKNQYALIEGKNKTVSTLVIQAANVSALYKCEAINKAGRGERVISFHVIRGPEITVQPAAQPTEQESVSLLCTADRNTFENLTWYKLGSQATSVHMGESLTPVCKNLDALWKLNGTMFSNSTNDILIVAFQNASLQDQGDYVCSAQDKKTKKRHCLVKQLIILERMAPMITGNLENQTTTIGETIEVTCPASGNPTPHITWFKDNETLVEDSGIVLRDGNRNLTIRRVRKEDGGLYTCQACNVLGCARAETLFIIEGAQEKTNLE
# Protocol: The cross-reactivity of antibodies in the hybridoma supernatant was tested against KDR mouse ortholog (mouse VEGFR2, or Flk-1) and human VEGFR1 (Flt-1). Cross-reactivity was measured using an ELISA based assay.
# After washing and blocking the plates, the antibody-containing supernatants were added (at 1:5 dilution) into the coated wells and incubated for one hour at room temperature. The plates were then incubated with mouse anti-human IgG 2, 3 and 4 and subsequently with goat anti-mouse IgG Fc POD, to detect and measure bound antibodies.
# T1 sequence (P35968 20-1356): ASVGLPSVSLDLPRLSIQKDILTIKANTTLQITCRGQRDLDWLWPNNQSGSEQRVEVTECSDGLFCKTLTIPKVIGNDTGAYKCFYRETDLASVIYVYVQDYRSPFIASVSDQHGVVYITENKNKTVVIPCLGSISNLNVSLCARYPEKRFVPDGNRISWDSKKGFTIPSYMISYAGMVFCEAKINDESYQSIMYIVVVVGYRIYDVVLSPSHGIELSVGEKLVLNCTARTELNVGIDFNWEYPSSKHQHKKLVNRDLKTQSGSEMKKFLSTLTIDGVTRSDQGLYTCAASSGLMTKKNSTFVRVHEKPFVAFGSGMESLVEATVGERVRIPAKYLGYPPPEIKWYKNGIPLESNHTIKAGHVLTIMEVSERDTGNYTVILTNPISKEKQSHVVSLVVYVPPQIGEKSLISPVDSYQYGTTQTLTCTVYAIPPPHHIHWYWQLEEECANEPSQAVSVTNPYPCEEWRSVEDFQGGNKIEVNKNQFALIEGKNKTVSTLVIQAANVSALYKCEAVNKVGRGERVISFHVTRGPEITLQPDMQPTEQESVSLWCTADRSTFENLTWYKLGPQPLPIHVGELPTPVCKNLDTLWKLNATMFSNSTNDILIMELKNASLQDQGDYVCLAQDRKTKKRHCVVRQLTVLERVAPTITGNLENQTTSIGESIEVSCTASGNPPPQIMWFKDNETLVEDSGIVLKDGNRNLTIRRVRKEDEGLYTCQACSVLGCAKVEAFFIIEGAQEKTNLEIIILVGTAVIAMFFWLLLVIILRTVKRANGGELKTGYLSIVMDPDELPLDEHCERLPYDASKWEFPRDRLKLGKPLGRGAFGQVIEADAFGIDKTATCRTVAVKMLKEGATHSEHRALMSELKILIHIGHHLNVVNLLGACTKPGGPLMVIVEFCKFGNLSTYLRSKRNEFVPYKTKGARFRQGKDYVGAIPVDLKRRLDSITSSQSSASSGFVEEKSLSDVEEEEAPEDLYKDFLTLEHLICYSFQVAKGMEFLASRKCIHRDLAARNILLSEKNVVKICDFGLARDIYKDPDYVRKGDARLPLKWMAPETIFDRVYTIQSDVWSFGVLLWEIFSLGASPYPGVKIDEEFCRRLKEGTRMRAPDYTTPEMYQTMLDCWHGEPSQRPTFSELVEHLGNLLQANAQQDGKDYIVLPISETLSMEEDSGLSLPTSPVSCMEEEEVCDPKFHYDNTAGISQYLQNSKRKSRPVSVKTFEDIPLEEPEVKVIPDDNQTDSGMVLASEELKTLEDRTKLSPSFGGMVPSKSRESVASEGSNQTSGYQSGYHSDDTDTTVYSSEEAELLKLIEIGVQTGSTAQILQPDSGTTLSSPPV
Binder,% Inhibition of VEGF-E-mediated pTyr Activity [1] [%],FACS Geometric Mean [2],KDR OD(450 nm) [3] [OD450],HUVEC survival (n = 1) 1:10 dilution of supernatant (RLU) [4] [RLU],HUVEC survival (n = 2) 1:20 dilution of supernatant (RLU) [4] [RLU],"% Inhibition of VEGF165-mediated pTyr Activity, Average [5] [%]","% Inhibition of VEGF165-mediated pTyr Activity, n = 1 [5] [%]","% Inhibition of VEGF165-mediated pTyr Activity, n = 2 [5] [%]","% Inhibition of VEGF165-mediated pTyr Activity, n = 3 [5] [%]",OD (450 nm) [6] [OD450]
"anti-KDR monoclonal antibody 30D7 (antibody, V domains shown, Fully human mAb from XenoMouse (IgG2 or IgG4 strain); hybridoma supernatant) VH: QVPLVESGGGVVQPGRSLRLSCAASGFTFSSYGMHWVRQAPGKGLEWVAVIWYDGSNKYYADSVKGRFTISRDNSKNTLYLQMNSLRAEDTAVYYCARGVTMVRGVIIARYYYGLDVWGQGTTVTVSS VL: DIVMTQTPLSSPVTLGQPASISCRSSQSLVHSDGNTYLSWLQQRPGQPPRLLIYKISNRFFGVPDRFSGSGAGTDFTLKIGRVEAEDVGLYYCMQSTQFPLTFGGGTKVEIK",24,31,3.45,28300,2520,76,99,71,59,
"anti-KDR monoclonal antibody 32B2 (antibody, V domains shown, Fully human mAb from XenoMouse (IgG2 or IgG4 strain); hybridoma supernatant) VH: EVQLLESGGGLVQPGGSLRLSCAASGFTFSNYAMSWVRQAPGKGLDWVSAISGRGGSTYYADSVKGRFTISRDNSKNTLFLLMNSLRAEDTAVYYCAKASGDDWGQGTLVTVSS VL: not shown",15,26,1.11,19300,400,77,91,75,66,
"anti-KDR monoclonal antibody 30E3 (antibody, V domains shown, Fully human mAb from XenoMouse (IgG2 or IgG4 strain); hybridoma supernatant; also called 30E3.1; 30E3.2) VH: EVQLLESGGGLVQPGGSLRLSCAASGFTFSNYALSWVRQAPGKGLEWVSAISGSGRNTYYADSVKGRFTLSRDNSKNTLFLQMNSLRAEDTAVYYCAKASGDNWGQGTLVTVSS VL: not shown",19,36,4.18,37500,30400,71,89,67,58,
"anti-KDR monoclonal antibody 29A11 (antibody, V domains shown, Fully human mAb from XenoMouse (IgG2 or IgG4 strain); hybridoma supernatant) VH: EVQLLESGGGLVQPGGSLRLSCAASGFTFSNYAMNWVRQAPGKGLEWVSAISGGGGNTYYADSVKGRFTISRDNSKNTLYLQMNRLRAEDTAVYYCAKASGDDWGQGTLVTVSS VL: not shown",15,31,3.53,34600,27700,78,96,72,66,
"anti-KDR monoclonal antibody 1G6 (antibody, V domains shown, Fully human mAb from XenoMouse (IgG2 or IgG4 strain); tested here as hybridoma supernatant) VH: EVQLLESGGGLVQPGGSLRLSCAASGFTFSSYAMSWVRQAPGKGLEWVSAISGGGGNTYYADSVKGRFTISRDNSKNTLYLQMNSLRAEDTAVYYCSKVATDYWGQGTLVTVSS VL: QPVLTQSSSASASLGSSVKLTCTLSSGHSSYIIAWHQQQPGKAPRYLMKLEGSGSYNKGSGVPDRFSGSSSGADRYLTISNLQFEDEADYYCETWDSYTVVFGGGTKLTVL",24,32,6,47800,10200,71,89,67,58,0.055
"anti-KDR monoclonal antibody 29A3 (antibody, V domains shown, Fully human mAb from XenoMouse (IgG2 or IgG4 strain); hybridoma supernatant) VH: QVQLQESGPGLVKPSETLSLTCTVSGGSISSYFWSWIRQPAGKGLEWIGRIYFSGRTNYNPSLKSRVTMSVETSKNQFSLKLNSVTAADTAVYYCARDGGWNYDVAFDYWGQGTLVTVSS VL: QAVLTQPSSLSASPGASASLTCTLRSGINVGTYRIYWYQQKPGSPPQYLLRYKSDSDQLQGSGVPSRFSGSKDASANAGILLISGLQSEDEADYYCMVWHSNTWVFGGGTKLTVL",22,30,0.814,36400,2450,77,92,66,72,
"anti-KDR monoclonal antibody 24C9 (antibody, V domains shown, Fully human mAb from XenoMouse (IgG2 or IgG4 strain); hybridoma supernatant) VH: EVQLVESGGGLVKPGGSLRLSCAASGFTFSTYSMNWVRQAPGKGLEWVSFISGRSSYIYYADSVKGRFTISRDNAKNSLYLQMNSLRAEDTAVYYCSKDDWFEELWGQGTLVTVSS VL: DIQMTQSPSSLSASVGDRVTITCRASQGIRNDLGWYQQKPGKAPKRLIYATFSLQSGVPSRFSGSGSGTEFTLTISSLQPEDFATYYCLQHNRYPWTFGQGTKVEIK",51,33,0.55,14600,9180,46,55,45,38,0.098
"anti-KDR monoclonal antibody 29F7 (antibody, V domains shown, Fully human mAb from XenoMouse (IgG2 or IgG4 strain); hybridoma supernatant) VH: QVQLVQSGAEVKKPGASVKVSCKASGYTFTSYDINWVRQATGQGLEWMGWMNPNSGKTGYAQKFQGRVTMTRSTSISTAYMELSSLRSEDTAVYYCARGGYSNLGWFDPWGQGTLVTVSS VL: DIQMTQSPSSVFASVGDRVTITCRASQGISTWLAWYQQKPGKAPKFLIYAASSLQSGVPSRFSGSGSGTDFTLTISSLQPDDFATYYCQQANNFPFTFGPGTKVDIK",45,32,1.22,44100,24000,78,90,67,77,0.093
"anti-KDR monoclonal antibody 33D5 (antibody, V domains shown, Fully human mAb from XenoMouse (IgG2 or IgG4 strain); hybridoma supernatant) VH: QVQLVQSGAEVKKPGASVKVSCKASGYTFGSYDINWVRQATGQGLEWMGWMNPNSGNTGYAQKFQGRVTLTRNTSIRTVYMELSSLRSEDTAVYYCARGGYSNLGWFDPWGQGSLVTVSS VL: DIQMTQSPSSVSVSVGDRVTITCRASQGISSWLAWYQQKPGKAPKLLIYAASSLQSGVPSRFSGSGSGTDFTLTISSLQPEDFATYYCQQANSFPFTFGPGTKVDIK",30,24,3.59,43400,706,77,95,72,63,
